Experimental data taken from patent US20220127316A1 (University of Pennsylvania, published 2022).

Molecular target: T1, recombinant human GFRα-like His-tag receptor (R&D 9647-GR-050) (human, UniProt Q6UXV0 19-351)
T1 construct: Bought protein, captured on a Pierce nickel coated plate at 0.1 µg/mL; also called GFRAL receptor; GDNF family receptor alpha-like; not shown: His-tag
T1 sequence (looked up): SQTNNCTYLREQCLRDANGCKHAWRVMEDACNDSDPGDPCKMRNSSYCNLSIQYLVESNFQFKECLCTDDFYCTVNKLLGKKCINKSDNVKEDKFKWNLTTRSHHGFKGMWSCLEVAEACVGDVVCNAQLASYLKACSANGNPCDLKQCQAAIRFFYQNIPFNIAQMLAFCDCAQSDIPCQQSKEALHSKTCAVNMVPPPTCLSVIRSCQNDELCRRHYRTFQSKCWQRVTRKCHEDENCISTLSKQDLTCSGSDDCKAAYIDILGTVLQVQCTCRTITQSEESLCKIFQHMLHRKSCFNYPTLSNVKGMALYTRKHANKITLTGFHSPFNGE
Test: ELISA; His-tagged GFRAL captured on nickel coated plate, GDF15 titrated 100 to 0.005 ng/mL, detected with anti-GDF15 primary antibody
Procedure: To validate binding of the synthesized peptides to the GFRAL receptor, an ELISA assay was developed to determine the binding affinity of the peptides for their receptor. The primary antibody (Abcam ab206414) was diluted to 1 μg/mL. The secondary antibody was diluted by placing 5 μL into 10 mL assay buffer. GDF15 was run at concentrations of 100 ng/mL to 0.005 ng/mL. The recombinant human GFRα-like His-tag receptor (R&D 9647-GR-050) was added to the Pierce™ nickel coated plate (ThermoFisher Scientific 15442) at 0.1 μg/mL in a total volume of 100 μL.

B1: Recombinant human GDF-15 (rhGDF15) (ligand, UniProt Q99988 197-308, looked up)
chain: ARNGDHCPLGPGRCCRLHTVRASLEDLGWADWVLSPREVQVTMCIGACPSQFRAANMHAQIKTSLHRLKPDTVPAPCCVPASYNPMVLIQKTDTGVSLQTYDDLLAKDCHCI
notes: Run at 100 ng/mL to 0.005 ng/mL in the ELISA and detected with primary antibody Abcam ab206414; also called growth and differentiation factor 15; MIC-1
- Kd: 1.03 ng/mL
